From patent US20090060916A1 (published 2009)
Several values for one entry are separate records, joined by “and”; a condition that tells them apart may be missing. Equal entries are not always repeated.

Key:
[1] = target: T1, human IL-4 (human, UniProt P05112 25-153, biotinylated in the receptor binding assay and on the Biacore chip); assay: IL-4 RBA: ELISA, IL-4R/Fc coated, biotinylated IL-4
T1 construct: also called interleukin-4; biotinylated IL-4
T1 sequence (looked up): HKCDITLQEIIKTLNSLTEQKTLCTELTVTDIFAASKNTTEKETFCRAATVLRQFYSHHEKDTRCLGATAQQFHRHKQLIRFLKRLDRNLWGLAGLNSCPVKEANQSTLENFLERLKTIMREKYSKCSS
Text: (§1) The wells were washed three times with 0.1% (v/v) Tween 20 in PBS, followed by three washes with PBS, before blocking with 2% (w/v) BSA in PBS. […] The reaction was stopped by the addition of HCl and the absorbance read at 450 nm.

[2] = target: T1, human IL-4; assay: DOM9 RBA (IL-4 RBA)
Text: as §1

[3] = target: T2, human IL-13 (human, UniProt P35225 35-146, biotinylated on the Biacore chip); assay: Dom10 RBA (IL-13 sandwich ELISA per paragraph 471)
T2 construct: also called hIL-13; recombinant human IL-13
Experimental: A MAXISORP™ plate (high protein binding ELISA plate, Nunc, Denmark) was coated overnight with 2.5 μg/ml coating antibody (Module Set, Bender MedSystems, Vienna, Austria), then washed once with 0.05% (v/v) Tween 20 in PBS before blocking with 0.5% (w/v) BSA 0.05% (v/v) Tween 20 in PBS. […] The plate was then incubated with TMB substrate (KPL, Gaithersburg, USA), and the reaction was stopped by the addition of HCl and the absorbance read at 450 nm.

[4] = target: T2, human IL-13; assay: IL-13 Biacore

T2 sequence (P35225 35-146 limits assumed): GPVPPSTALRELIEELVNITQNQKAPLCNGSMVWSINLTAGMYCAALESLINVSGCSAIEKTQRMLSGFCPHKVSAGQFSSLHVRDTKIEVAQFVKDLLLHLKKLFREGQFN

Row | Binder | IC50 [1] | IC50 [2] [nM] | EC50 [3] [nM] | binding result [4]
1 | DOM9-155 (other, Vk dAb) VL: DIQMTQSPSSLSASVGDRVTITCRASLDIGDWLHWYQQKPGKAPKLLIGWGSGLQSGVPSRFSGSGSGTDFTLTISSLQPEDFATYYCLQEGLGPPTFGQGTKVEIKR | 100 nM | – | – | –
2 | DOM9-112 (other, VH dAb) VH: EVQLLESGGGLVQPGGSLRLSCAASGFTFRNYGMAWVRQAPGKGLEWVSWIDASGTETYYADSVKGRFTISRDNSKNTLYLQMNSLRAEDTAVYYCAKSLGRFDYWGQGTLVTVSS | 3 nM | 3.6 | – | –
3 | DOM9-112-168 (other, VH dAb) VH: EVQLLESGGGLVQPGGSLRLSCAASGFTFRNYGMAWVRQAPGKGLEWVSWIEGGGTETYYADSVKGRFTISRDNSKNTLYLQMNSLRAEDTAVYYCAKSLGRFDYWGQGTLVTVSS | 1.22 nM and 0.64 nM | – | – | –
4 | DOM10-213-TVAAPS-DOM9-155-78 (bispecific antibody, in-line fusion, from pDOM5) DIQMTQSPSSLSASVGDRVTITCRASQAIPWGLNWYQQKPGKAPKLLIYDVSSLQSGVPSRFSGSGSGTDFTLTISSLQPEDFATYYCQQDIHIPMTFGQGTKVEIKRTVAAPSDIQMTQSPSSLSASVGDRVTITCRASRHIGDWLHWYQQKPGKAPKLLIAWASTLDSGVPSRFSGSGSGTDFTLTISSLQPEDFATYYCLQEGWGPPTFGQGTKVEIKR | – | 6.91 | 62 | –
5 | DOM10-215-TVAAPS-DOM9-155-78 (bispecific antibody, in-line fusion, from pDOM5) DIQMTQSPSSLSASVGDRVTITCRASQNIFADLNWYQQKPGKAPKLLIYMGSRLQSGVPSRFSGSGSGTDFTLTISSLQPEDFATYYCQQDYKFPLTFGQGTKVEIKRTVAAPSDIQMTQSPSSLSASVGDRVTITCRASRHIGDWLHWYQQKPGKAPKLLIAWASTLDSGVPSRFSGSGSGTDFTLTISSLQPEDFATYYCLQEGWGPPTFGQGTKVEIKR | – | 6.65 | 10.8 | –
6 | DOM9-44 (other, Vk dAb) VL: DIQMTQSPSSLSASVGDRVTITCRASQNINFWLRWYQQKPGKAPTLLIYDASALQSGVPSRFSGSGSGTDFTLTISSLQPEDFATYYCQQDFNPPYTFGQGTKVEIKR | 122 nM | – | – | –
7 | DOM9-112-210-ASTKGPS-DOM10-273 (bispecific antibody, in-line fusion, from pDOM5) EVQLLESGGGLVQPGGSLRLSCAASGFTFRNFGMGWVRQAPGKGLEWVSWIISSGTETYYADSVKGRFTISRDNSKNTLYLQMNSLRAEDTAVYYCAKSLGRFDYWGQGTLVTVSSASTKGPSEVQLLESGGGLVQPGGSLRLSCAASGFTFELEEMDWVRQAPGKGLEWVSSISGSGGSTYYADSVKGRFTISRDNSKNTLYLQMNSLRAEDTAVYYCAKAYTGFDYWGQGTLVTVSS | – | 10.5 | 4550 | –
8 | DOM9-112-210-ASTKGPS-DOM10-416 (bispecific antibody, in-line fusion, from pDOM5) EVQLLESGGGLVQPGGSLRLSCAASGFTFRNFGMGWVRQAPGKGLEWVSWIISSGTETYYADSVKGRFTISRDNSKNTLYLQMNSLRAEDTAVYYCAKSLGRFDYWGQGTLVTVSSASTKGPSEVQLLESGGGLVQPGGSLRLSCAASGFTFKGSEMDWVRQAPGKGLEWVSTISADGRETYYADSVKGRFTISRDNSKNTLYLQMNSLRAEDTAVYYCAKSYTSFDYWGQGTLVTVSS | – | 7.27 | 34400 | –
9 | DOM9-112-210-ASTKGPS-DOM10-277 (bispecific antibody, in-line fusion, from pDOM5) EVQLLESGGGLVQPGGSLRLSCAASGFTFRNFGMGWVRQAPGKGLEWVSWIISSGTETYYADSVKGRFTISRDNSKNTLYLQMNSLRAEDTAVYYCAKSLGRFDYWGQGTLVTVSSASTKGPSEVQLLESGGGLVQPGGSLRLSCAASGFTFSSYEMDWVRQAPGKGLEWVSTISADGVTTYYADSVKGRFTISRDNSKNTLYLQMNSLRAEDTAVYYCAKAFDAFDYWGQGTLVTVSS | – | 11.7 | 4380 | –
10 | DOM9-112-210-ASTKGPS-DOM10-213 (bispecific antibody, in-line fusion, from pDOM5) EVQLLESGGGLVQPGGSLRLSCAASGFTFRNFGMGWVRQAPGKGLEWVSWIISSGTETYYADSVKGRFTISRDNSKNTLYLQMNSLRAEDTAVYYCAKSLGRFDYWGQGTLVTVSSASTKGPSDIQMTQSPSSLSASVGDRVTITCRASQAIPWGLNWYQQKPGKAPKLLIYDVSSLQSGVPSRFSGSGSGTDFTLTISSLQPEDFATYYCQQDIHIPMTFGQGTKVEIKR | – | 4.29 | 1150 | –
11 | DOM9-112-210-ASTKGPS-DOM10-212 (bispecific antibody, in-line fusion, from pDOM5) EVQLLESGGGLVQPGGSLRLSCAASGFTFRNFGMGWVRQAPGKGLEWVSWIISSGTETYYADSVKGRFTISRDNSKNTLYLQMNSLRAEDTAVYYCAKSLGRFDYWGQGTLVTVSSASTKGPSDIQMTQSPSSLSASVGDRVTITCRASSVILNELHWYQQKPGKAPKLLISAVSRLQSGVPSRFSGSGSGTDFTLTISSLQPEDFATYYCLQTFWGPFTFGQGTKVEIKR | – | 3.21 | 1000 | –
12 | DOM9-112-210-DOM10-270 (bispecific antibody, in-line fusion, from pDOM5) EVQLLESGGGLVQPGGSLRLSCAASGFTFRNFGMGWVRQAPGKGLEWVSWIISSGTETYYADSVKGRFTISRDNSKNTLYLQMNSLRAEDTAVYYCAKSLGRFDYWGQGTLVTVSSASTKGPSDIQMTQSPSSLSASVGDRVTITCRASSVILNELHWYQQKPGKAPKLLISAVSRLQSGVPSRFSGSGSGTDFTLTISSLQPEDFATYYCLQTFWGPYTFGQGTKVEIKR | – | 2.79 | 398 | –
13 | DOM9-112-210-ASTKGPS-DOM10-236 (bispecific antibody, in-line fusion, from pDOM5) EVQLLESGGGLVQPGGSLRLSCAASGFTFRNFGMGWVRQAPGKGLEWVSWIISSGTETYYADSVKGRFTISRDNSKNTLYLQMNSLRAEDTAVYYCAKSLGRFDYWGQGTLVTVSSASTKGPSEVQLLESGGGLVQPGGSLRLSCAASGFTFPKYDMMWVRQAPGKGLEWVSSIDHLGVNTYYADSVKGRFTISRDNSKNTLYLQMNSLRAEDTAVYYCAKESDWPSFDYWGQGTLVTVSS | – | – | – | binds
14 | DOM10-236-ASTKGPS-DOM9-155-78 (bispecific antibody, in-line fusion, from pDOM5) EVQLLESGGGLVQPGGSLRLSCAASGFTFPKYDMMWVRQAPGKGLEWVSSIDHLGVNTYYADSVKGRFTISRDNSKNTLYLQMNSLRAEDTAVYYCAKESDWPSFDYWGQGTLVTVSSASTKGPSDIQMTQSPSSLSASVGDRVTITCRASRHIGDWLHWYQQKPGKAPKLLIAWASTLDSGVPSRFSGSGSGTDFTLTISSLQPEDFATYYCLQEGWGPPTFGQGTKVEIKR | – | 2.54 | 372 | –
15 | DOM9-112-210-ASTKGPS-DOM10-224 (bispecific antibody, in-line fusion, from pDOM5) EVQLLESGGGLVQPGGSLRLSCAASGFTFRNFGMGWVRQAPGKGLEWVSWIISSGTETYYADSVKGRFTISRDNSKNTLYLQMNSLRAEDTAVYYCAKSLGRFDYWGQGTLVTVSSASTKGPSDIQMTQSPSSLSASVGDRVTITCRASPNIAVDLAWYQQKPGKAPKLLIRGVSRLQSGVPSRFSGSGSGTDFTLTISSLQPEDFATYYCRQGAMGSYTFGQGTKVEIKR | – | 2.75 | 4580 | –
16 | DOM10-208-TVAAPS-DOM9-155-78 (bispecific antibody, in-line fusion, from pDOM5) DIQMTQSPSSLSASVGDRVTITCRASSPITDGLAWYQQKPGKAPKLLIDTGSRLQSGVPSRFSGSGSGTDFTLTISSLQPEDFATYYCRQGAMGSYTFGQGTKVEIKRTVAAPSDIQMTQSPSSLSASVGDRVTITCRASRHIGDWLHWYQQKPGKAPKLLIAWASTLDSGVPSRFSGSGSGTDFTLTISSLQPEDFATYYCLQEGWGPPTFGQGTKVEIKR | – | 8.18 | 4240 | –
17 | DOM10-273-ASTKGPS-DOM9-155-78 (bispecific antibody, in-line fusion, from pDOM5) EVQLLESGGGLVQPGGSLRLSCAASGFTFELEEMDWVRQAPGKGLEWVSSISGSGGSTYYADSVKGRFTISRDNSKNTLYLQMNSLRAEDTAVYYCAKAYTGFDYWGQGTLVTVSSASTKGPSDIQMTQSPSSLSASVGDRVTITCRASRHIGDWLHWYQQKPGKAPKLLIAWASTLDSGVPSRFSGSGSGTDFTLTISSLQPEDFATYYCLQEGWGPPTFGQGTKVEIKR | – | 2.25 | 185 | –
18 | DOM10-277-ASTKGPS-DOM9-155-78 (bispecific antibody, in-line fusion, from pDOM5) EVQLLESGGGLVQPGGSLRLSCAASGFTFSSYEMDWVRQAPGKGLEWVSTISADGVTTYYADSVKGRFTISRDNSKNTLYLQMNSLRAEDTAVYYCAKAFDAFDYWGQGTLVTVSSASTKGPSDIQMTQSPSSLSASVGDRVTITCRASRHIGDWLHWYQQKPGKAPKLLIAWASTLDSGVPSRFSGSGSGTDFTLTISSLQPEDFATYYCLQEGWGPPTFGQGTKVEIKR | – | 9.45 | 648 | –
19 | DOM10-416-ASTKGPS-DOM9-155-78 (bispecific antibody, in-line fusion, from pDOM5) EVQLLESGGGLVQPGGSLRLSCAASGFTFKGSEMDWVRQAPGKGLEWVSTISADGRETYYADSVKGRFTISRDNSKNTLYLQMNSLRAEDTAVYYCAKSYTSFDYWGQGTLVTVSSASTKGPSDIQMTQSPSSLSASVGDRVTITCRASRHIGDWLHWYQQKPGKAPKLLIAWASTLDSGVPSRFSGSGSGTDFTLTISSLQPEDFATYYCLQEGWGPPTFGQGTKVEIKR | – | 5.88 | 444 | –
20 | DOM10-270-TVAAPS-DOM9-155-78 (bispecific antibody, in-line fusion, from pDOM5) DIQMTQSPSSLSASVGDRVTITCRASSVILNELHWYQQKPGKAPKLLISAVSRLQSGVPSRFSGSGSGTDFTLTISSLQPEDFATYYCLQTFWGPYTFGQGTKVEIKRTVAAPSDIQMTQSPSSLSASVGDRVTITCRASRHIGDWLHWYQQKPGKAPKLLIAWASTLDSGVPSRFSGSGSGTDFTLTISSLQPEDFATYYCLQEGWGPPTFGQGTKVEIKR | – | 8.6 | 37.2 | –
